Source: patent US20250332277A1, “PROTEIN TYROSINE KINASE 7 ANTIBODIES AND ANTIBODY-DRUG CONJUGATES” (Eli Lilly and Company, priority 2024, published 2025)

Molecular target: human PTK-7 on cells (OV90-PTK-7, NCI-H446, OVCAR-3) (human) (UniProt Q13308)
Test: cell-based or functional assay

Chain of human PTK-7 on cells (OV90-PTK-7, NCI-H446, OVCAR-3) (human) (Q13308 31-1070 limits assumed): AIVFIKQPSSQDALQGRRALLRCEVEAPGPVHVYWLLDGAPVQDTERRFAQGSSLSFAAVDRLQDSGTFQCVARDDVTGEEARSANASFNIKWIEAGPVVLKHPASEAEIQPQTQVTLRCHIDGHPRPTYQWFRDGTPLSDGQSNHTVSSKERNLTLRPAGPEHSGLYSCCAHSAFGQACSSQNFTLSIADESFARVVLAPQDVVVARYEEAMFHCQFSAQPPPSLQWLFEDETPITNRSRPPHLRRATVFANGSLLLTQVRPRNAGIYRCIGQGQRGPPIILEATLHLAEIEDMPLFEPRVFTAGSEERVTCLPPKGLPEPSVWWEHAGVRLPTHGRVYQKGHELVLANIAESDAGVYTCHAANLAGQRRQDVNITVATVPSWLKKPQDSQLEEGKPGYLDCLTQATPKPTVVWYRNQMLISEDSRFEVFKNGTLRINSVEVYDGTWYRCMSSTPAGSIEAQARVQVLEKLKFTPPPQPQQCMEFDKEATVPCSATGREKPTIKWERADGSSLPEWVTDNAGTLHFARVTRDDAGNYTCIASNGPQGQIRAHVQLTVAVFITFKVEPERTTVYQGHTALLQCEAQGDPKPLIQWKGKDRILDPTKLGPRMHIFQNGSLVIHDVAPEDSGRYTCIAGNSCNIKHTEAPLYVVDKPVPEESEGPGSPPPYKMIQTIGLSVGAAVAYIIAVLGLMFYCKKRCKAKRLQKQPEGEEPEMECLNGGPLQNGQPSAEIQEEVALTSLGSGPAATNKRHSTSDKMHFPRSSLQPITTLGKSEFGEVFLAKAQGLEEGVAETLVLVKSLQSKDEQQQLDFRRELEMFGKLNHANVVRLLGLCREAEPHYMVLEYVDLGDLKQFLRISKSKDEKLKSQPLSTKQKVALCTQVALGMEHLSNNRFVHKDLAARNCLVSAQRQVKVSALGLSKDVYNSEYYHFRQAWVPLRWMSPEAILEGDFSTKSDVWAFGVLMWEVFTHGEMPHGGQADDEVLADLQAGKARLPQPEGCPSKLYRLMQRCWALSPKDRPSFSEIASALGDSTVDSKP

B1: Cofetuzumab-Pelidotin (protein, INN chains, looked up)
VH: QVQLVQSGPEVKKPGASVKVSCKASGYTFTDYAVHWVRQAPGKRLEWIGVISTYNDYTYNNQDFKGRVTMTRDTSASTAYMELSRLRSEDTAVYYCARGNSYFYALDYWGQGTSVTVSS
VL: EIVLTQSPATLSLSPGERATLSCRASESVDSYGKSFMHWYQQKPGQAPRLLIYRASNLESGIPARFSGSGSGTDFTLTISSLEPEDFAVYYCQQSNEDPWTFGGGTKLEIK
modifications: pelidotin auristatin payload
- Cytotoxicity IC50, OV90-PTK-7 cells (CellTiter-Glo, 5 days): 0.0331 pM
- Cytotoxicity IC50, OVCAR-3 cells (CellTiter-Glo, 7 days): 2.53 nM
